Assay [1] has as its target biotinylated anti-human-serum-albumin antibody. Put plainly: ellipsometry; biotinylated anti-HSA (5 µM) layer on streptavidin-modified rSAM; binding through biotin.
The target of assay [2] is biotinylated prostate specific antigen antibody (ABIN 192197). Put plainly: ellipsometry; biotinylated anti-PSA (5 µM) layer on streptavidin-modified rSAM; binding through biotin.
The target in assay [3] is prostate specific antigen (ABIN572980) (UniProt P07288). Put plainly: in situ ellipsometry, PSA from buffer media.
The target is the same in assay [4]. Put plainly: in situ ellipsometry on rSAM-SA-anti-PSA sensor, buffer.
For assay [5] the target is unchanged. Put plainly: ellipsometry; PSA layer formed on rSAM-SA-biotinylated anti-PSA.
Assay [6] shares this target. Put plainly: in situ ellipsometry; PSA spiked into 200-fold diluted human serum.
Assay [7] has the same target. Put plainly: in situ ellipsometry; 100 pM antigen in borate buffer pH 8 on the antibody-modified rSAM.

These results are taken from patent US20200355707A1.

For “streptavidine (from UniProt P22629 37-163)”, the top layer thickness in assay [1] was determined as 3.4 nm; in assay [2] it was 4 nm.
Substance “biotinylated prostate specific antigen antibody (ABIN 192197)” had a maximum surface coverage in assay [3] of 2.4 mg/m^2. The detection limit in assay [4] came out at 40 fM. Moreover, the top layer thickness in assay [5] turned out to be 4 nm. For the same substance, the film thickness increase in assay [6] and in assay [7] was 4 nm throughout.
